From article PMC7924340 (Toxins, 2021)

Experiments:
Test in all cases: radioligand binding
[1] = biological target: Acetylcholine binding protein from Aplysia californica (Aplysia californica)
[2] = biological target: Muscle-type nAChR from the electric organs of Torpedo californica (Torpedo californica (endogenous in electric organ))
[3] = biological target: Acetylcholine binding protein from Lymnaea stagnalis (Lymnaea stagnalis) (UniProt P58154)
[4] = biological target: human α7 nAChR (human) (UniProt P36544)
[5] = biological target: T1, human α7 nAChR (human, UniProt P36544 23-502); conditions: one partner purified
T1 construct: also called hα7 nAChR

[6] = biological target: T2, Acetylcholine binding protein from Lymnaea stagnalis (Lymnaea stagnalis, UniProt P58154 20-229); conditions: both partners purified
T2 construct: also called AChBP L. stagnalis; L. stagnalis AChBP

T1 sequence (P36544 23-502): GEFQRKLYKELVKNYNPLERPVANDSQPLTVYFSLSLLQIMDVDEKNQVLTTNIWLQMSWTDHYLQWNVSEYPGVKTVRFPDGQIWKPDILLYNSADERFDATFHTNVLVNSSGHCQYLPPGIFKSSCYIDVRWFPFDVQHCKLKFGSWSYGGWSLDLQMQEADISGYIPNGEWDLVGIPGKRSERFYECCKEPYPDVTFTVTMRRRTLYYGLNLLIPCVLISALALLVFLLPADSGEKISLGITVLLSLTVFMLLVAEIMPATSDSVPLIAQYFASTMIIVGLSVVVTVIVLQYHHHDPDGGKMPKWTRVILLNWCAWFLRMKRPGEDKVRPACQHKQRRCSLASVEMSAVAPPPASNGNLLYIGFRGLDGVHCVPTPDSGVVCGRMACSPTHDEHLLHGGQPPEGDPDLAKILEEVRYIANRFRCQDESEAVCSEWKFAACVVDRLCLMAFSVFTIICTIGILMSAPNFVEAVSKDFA

Molecule: Tx-NM3-1 (from UniProt P01388 1-71) (natural protein)
- IC50 [1]: 3200 nM
- IC50 [2]: 1.61 nM
- IC50 [3]: 203 nM
- IC50 [4]: 4.84 nM

Molecule: α-bungarotoxin from krait Bungarus multicinctus venom (from UniProt P60615 22-95) (natural protein)
- IC50 [1]: 155 nM

B1: Tx-NM4 (natural protein)
chain: IRCFITPDVTSQICADGHVCYTKTWCDNFCASRGKRVDLGCAATCPTVKPGVNIKCCSTDNCNPFPTRNRP
- IC50 [5]: 26.9 nM
- IC50 [6]: 1160 ± 40 nM
- IC50 [1]: 2350 nM
- IC50 [2]: 2.17 nM

B2: Long type neurotoxin I from cobra N. oxiana (natural protein)
chain: ITCYKTPIPITSETCAPGQNLCYTKTWCDAWCGSRGKVIELGCAATCPTVESYQDIKCCSTDDCNPHPKQKRP
- IC50 [6]: 73.4 ± 1.3 nM
- IC50 [1]: 1200 nM

B3: α-bungarotoxin from krait Bungarus multicinctus venom (natural protein)
chain: IVCHTTATSPISAVTCPPGENLCYRKMWCDAFCSSRGKVVELGCAATCPSKKPYEEVTCCSTDKCNPHPKQRPG
- IC50 [6]: 17.2 ± 0.7 nM
